# Laboratory results: patent publication US7470668B2, “Method of use of specific natriuretic peptide receptor c ligands, transgenic non-human mammals expressing specific natriuretic peptide receptor c antagonists and cells thereof” (Enobia Pharma Inc., priority 2005, dated 2008)
# B1: rhOstn[27-133]: N-terminal 6 histidine-tagged recombinant human Ostn amino acids 27-133 produced in E.coli, SEQ ID NO: 57 (protein)
# chain: SVDVTTTEAFDSGVIDVQSTPTVREEKSATDLTAKLLLLDELVSLENDVIETKKKRSFSGFGSPLDRLSAGSVDHKGKQRKVVDHPKRRFGIPMDRIGRNRLSNSRG
# modifications: N-terminal His6 tag; recombinant mature osteocrin
# How the values were obtained:
# [1] = biological target: T1, NPR-C (Homo sapiens, UniProt P17342); assay: ANP-stimulated cGMP in NPR-C overexpressing HEK293 cells; format: cell-based; settings: NPR-C-expressing cells, 0.1 nM ANP plus 10 nM peptide
# T1 construct: expressed in transfected cells; host or cells: HEK293, transient, pCDNA1.1 (CMV promoter)
# T1 sequence (P17342 27-541): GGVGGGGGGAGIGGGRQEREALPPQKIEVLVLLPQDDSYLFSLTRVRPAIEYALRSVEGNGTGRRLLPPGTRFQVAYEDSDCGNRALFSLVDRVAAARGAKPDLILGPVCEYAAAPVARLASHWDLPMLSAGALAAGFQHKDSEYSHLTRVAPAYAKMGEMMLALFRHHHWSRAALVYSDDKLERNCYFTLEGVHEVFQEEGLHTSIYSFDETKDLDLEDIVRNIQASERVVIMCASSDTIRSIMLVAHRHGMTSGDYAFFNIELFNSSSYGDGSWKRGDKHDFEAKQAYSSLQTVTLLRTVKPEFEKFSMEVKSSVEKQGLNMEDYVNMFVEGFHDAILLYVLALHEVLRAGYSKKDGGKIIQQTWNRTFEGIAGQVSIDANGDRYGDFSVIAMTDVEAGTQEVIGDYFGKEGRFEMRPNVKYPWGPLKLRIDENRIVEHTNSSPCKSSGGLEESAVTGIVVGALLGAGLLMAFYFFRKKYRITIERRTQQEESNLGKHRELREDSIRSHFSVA
# From the text: The expression plasmid for rat GC-A containing the entire coding sequence cloned between the NheI-KpnI sites of CMV-driven pBK plasmid (Stratagene, La Jolla, Calif.) was kindly provided by Dr. A. De Léan (Département de Pharmacologie, Université de Montréal). The human NPR-C and GC-B coding sequences were amplified by RT-PCR from human embryonic kidney polyA RNA (Clontech, Palo Alto, Calif.) with the following primer pairs: NPR-C-5′-[…]-3′(forward) (SEQ ID NO: 74) and 5′-[…]-3′ (SEQ ID NO: 75) (reverse); GC-B-5′-[…]-3′ (SEQ ID NO: 76) (forward) and 5′-[…]-3′ (SEQ ID NO: 77) (reverse). The resulting PCR products were then cloned downstream of the CMV-promoter into the pCDNA1.1 plasmid (Invitrogen, Burlington, ON, Canada). All constructs were validated by DNA sequencing.
# [2] = biological target: T2, endogenous GC-A (Homo sapiens, UniProt P16066); assay: ANP-stimulated cGMP in GFP-transfected HEK293 cells (endogenous GC-A); settings: co-incubation with 10 nM peptide (data not shown)
# T2 sequence (P16066 33-1061): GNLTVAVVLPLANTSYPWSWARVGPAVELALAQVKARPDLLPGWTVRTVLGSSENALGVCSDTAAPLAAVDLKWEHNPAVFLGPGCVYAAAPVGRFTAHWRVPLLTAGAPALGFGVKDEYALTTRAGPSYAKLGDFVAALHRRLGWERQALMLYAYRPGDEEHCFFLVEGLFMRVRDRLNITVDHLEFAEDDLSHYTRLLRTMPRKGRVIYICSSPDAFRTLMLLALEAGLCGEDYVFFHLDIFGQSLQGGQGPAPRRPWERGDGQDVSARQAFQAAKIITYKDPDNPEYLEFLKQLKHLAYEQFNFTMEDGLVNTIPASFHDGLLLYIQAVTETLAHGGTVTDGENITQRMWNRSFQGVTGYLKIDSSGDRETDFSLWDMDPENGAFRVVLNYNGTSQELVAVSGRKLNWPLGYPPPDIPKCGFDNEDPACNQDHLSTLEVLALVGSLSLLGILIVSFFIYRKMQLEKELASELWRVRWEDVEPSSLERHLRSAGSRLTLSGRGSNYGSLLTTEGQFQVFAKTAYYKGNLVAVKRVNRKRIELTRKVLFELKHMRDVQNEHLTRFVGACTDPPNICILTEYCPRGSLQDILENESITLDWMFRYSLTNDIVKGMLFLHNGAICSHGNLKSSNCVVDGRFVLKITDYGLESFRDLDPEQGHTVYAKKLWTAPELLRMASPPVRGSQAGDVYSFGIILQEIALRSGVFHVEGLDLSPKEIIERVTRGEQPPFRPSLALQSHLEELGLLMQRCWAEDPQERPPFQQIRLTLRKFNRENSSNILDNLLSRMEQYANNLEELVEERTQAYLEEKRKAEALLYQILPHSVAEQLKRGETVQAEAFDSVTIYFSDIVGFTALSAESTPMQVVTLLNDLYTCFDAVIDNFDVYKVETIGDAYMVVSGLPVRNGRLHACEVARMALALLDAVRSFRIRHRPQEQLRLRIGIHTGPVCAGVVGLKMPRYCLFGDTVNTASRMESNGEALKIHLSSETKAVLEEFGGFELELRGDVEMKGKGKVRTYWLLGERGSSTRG
# [3] = biological target: T3, human GC-B (Homo sapiens, UniProt P20594); assay: Intracellular cGMP in GC-B transfected HEK293 cells; format: cell-based; settings: 10 nM peptide, 15 min
# T3 construct: expressed in transfected cells; host or cells: HEK293, transient, pCDNA1.1 (CMV promoter)
# T3 sequence (P20594 23-1047): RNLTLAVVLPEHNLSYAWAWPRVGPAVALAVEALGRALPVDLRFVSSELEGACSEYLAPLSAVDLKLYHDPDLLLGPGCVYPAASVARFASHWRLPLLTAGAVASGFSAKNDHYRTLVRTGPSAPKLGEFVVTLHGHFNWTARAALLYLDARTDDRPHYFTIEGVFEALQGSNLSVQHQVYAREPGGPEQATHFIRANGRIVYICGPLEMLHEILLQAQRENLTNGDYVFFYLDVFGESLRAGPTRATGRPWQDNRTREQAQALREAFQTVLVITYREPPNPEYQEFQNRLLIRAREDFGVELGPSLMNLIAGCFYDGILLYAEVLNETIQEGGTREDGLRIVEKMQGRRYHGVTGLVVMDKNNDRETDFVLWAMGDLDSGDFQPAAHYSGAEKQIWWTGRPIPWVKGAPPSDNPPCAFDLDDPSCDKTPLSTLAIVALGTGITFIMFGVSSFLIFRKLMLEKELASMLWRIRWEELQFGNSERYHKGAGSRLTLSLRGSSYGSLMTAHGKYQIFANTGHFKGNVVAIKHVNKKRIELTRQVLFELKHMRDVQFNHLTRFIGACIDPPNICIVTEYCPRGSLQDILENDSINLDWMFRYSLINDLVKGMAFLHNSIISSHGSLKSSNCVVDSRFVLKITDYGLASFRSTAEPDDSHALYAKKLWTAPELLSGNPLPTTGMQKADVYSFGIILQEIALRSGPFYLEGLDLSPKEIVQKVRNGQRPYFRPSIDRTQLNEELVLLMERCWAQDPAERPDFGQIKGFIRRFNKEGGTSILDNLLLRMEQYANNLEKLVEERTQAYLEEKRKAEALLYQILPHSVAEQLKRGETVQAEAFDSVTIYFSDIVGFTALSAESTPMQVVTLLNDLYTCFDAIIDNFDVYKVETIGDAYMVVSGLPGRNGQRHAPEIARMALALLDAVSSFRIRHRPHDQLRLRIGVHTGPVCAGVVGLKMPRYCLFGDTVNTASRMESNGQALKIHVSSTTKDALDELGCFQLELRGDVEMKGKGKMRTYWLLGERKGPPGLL
molecule,measurement,setting,value
B1,increase in cGMP levels (restored ANP signalling),[1],8 fold
same,effect on ANP signalling,[2],no effect
same,intracellular cGMP response via GC-B,[3],failed to activate
